Reference: the nanobody polyreactivity screen of Harvey et al. (2022)

test: yeast display, Sf9 membrane polyspecificity reagent, FACS + sequencing; frameworks hold sequencing errors
Outline: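 A nanobody's polyreactivity label depends on the gate it was sorted from. Yeast display cells were stained with 10% biotinylated, detergent-solubilized Sf9 membrane reagent for 1 hour at 4 °C, enriched on streptavidin microbeads and sorted by FACS. The low and high (top ~1%) gates were set on anti-HA fluorescence for expression and streptavidin fluorescence for reagent binding.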

Sequence	polyreactivity (PSR sort gate)
QVQLVESGGSLVQARGSLRLSCAASGFIFPYYVMGGYRHAPGQERELVAAITCGGITYYAESVKGRFTISRDNAKNTVYFLMTSLKPEDTVVYYCAAENKYFYAWGSFVDDEYWGQGTQVTVSS	high polyreactivity
QVQLVESGGVLDQAGGSLRLICAASGITLFHYVMGWYRQAPGKEMELVAVISSSGGSTYYADSVKGRFTISRDNAKNTVYLQMNSLKPEDTAVYYCAAETDSRKARVLYDYWGQGTQVTVSS	high polyreactivity
QVQLVESGGVLDQAGGSLRLSFAASGFTFGAYAMGWYRHAPGKETELVASISWSGGSTYYADSVKGRFTISRDNAKNPVYLQMNSVKPEDTAVYYCNKDFVYPEDDGLFDFWGQGTQVTVSS	low polyreactivity
QVQLVESGGVLDQAGRSLRLSCAASGRTFNRYAMGWYRQAPGKERDLVAAISSSGGSTYYADSVKGRFTISRDNAKNTVYLQMNSLKPEDTAVYYCNKGQYSHLNSYGDDYWGQGTQVTVSS	high polyreactivity
QVQLVESGGVLLQAGGSLRLTCAASGSIFQYNALVGYRQAPGKVREFVAAITRGDSTYYADSVKGRFTISRDNAKNTVYLQMNSLKADDTAVYYCAKRGWFYGGRDYWGQGTQVTVSS	high polyreactivity
QVQLVESGGVLVQAAGSLRLSCAASGRIFGYNAMGWYRQAPGSERDFVAAISPSGGSTYYADSLKGLFTISRDNAKITVYLQMNSLKPEDTGVYYCAARIGYRSWAWDAYEYWGQGTQVTVSS	low polyreactivity
QVQLVESGGVLVQAGGSLRISCAASGIIFSYYAMGWYRQAPGKERELVAAIYRRGTSTYYADSVKGRFTISRDNAKNTVYLQMNSLKPEDTAVYYCNKSPYYTVWSTRCNQFSRFYYWGQGTQVTVSS	high polyreactivity
QVQLVESGGVLVQAGGSLRISCAASGSIFGSYAMGWYRQAPGKEREFVAAIRRSSASTYYADSVKGRFTISRDNAKNTVYLQMYSLKPEDTAVYYCATQCYCYYGYRYRYAAYDYRGQGTQVTVSS	high polyreactivity
QVQLVESGGVLVQAGGSLRLICAASGSTFEFYAMGWYRQEPGKERELVARITWNGGNTYADSVKGRYTISRDNAKNNVYLQMNSLKPEDTSVYYCATDYVVGFYYWGQGTQVTVSS	low polyreactivity
QVQLVESGGVLVQAGGSLRLSCAASGFIFPYYAMGWYRPAPGKETELVAAIDQSGDSTYYADSVKGRFTISRDNAKNTVYLQMNSLKPEDTAVFYCAARAVGGVRGYRYDYWGQGTQVTVSS	high polyreactivity
QVQLVESGGVLVQAGGSLRLSCAASGFTFLVYAMGWYRQAPGKERELLAAITSGSSTTYADSVKGRFTISRDNAKNTVYLQMNSLKPEDTAVYYCAARPRLDVLVKRFYYWGQGTQVTVSS	high polyreactivity
QVQLVESGGVLVQAGGSLRLSCAASGFTFVSNDMGWYRQAPGKERELVAAIRYRGGDTYYADSVKGRFTISRDNAKNTVYLQMNSLKPEDTAVYYCATGKRAYSSYLFDYWGQGTQVTVSS	low polyreactivity
QVQLVESGGVLVQAGGSLRLSCAASGGIFGNYAMGWYRQAPGKERELVAVIDSSDGSTHYADSVKGRFTISRDNAKITVYLQMNSLKPEDTALYYCATQGFWNYWTFDYWGQGTQVTVSS	low polyreactivity
QVQLVESGGVLVQAGGSLRLSCAASGITFNSYAMGWYRQAPGKERELVASISWIGGSTYYADSVKGRFTISRDNAKNTVYFQMNSLKPEDTAVYYCAVDKGTDYYYDVDYWGQGTQVTVSS	low polyreactivity
QVQLVESGGVLVQAGGSLRLSCAASGLIFPSYALGWYRQAPGKERELVAAITFSGSDTNYADSVKGRFTISRDNAKNTVSLQMKSLKPEDTAVYYCAAAYFDFWGWLHDYWGQGTQVTVSS	low polyreactivity
QVQLVESGGVLVQAGGSLRLSCAASGLTFDPNAMGWYRQAPGKERELVATITQTDGSTYYADSVKGRFTISRDNAKNTVYLQMNSLKPEDTAVYYCDGLVSRGSDYWGQGTQVTVSS	low polyreactivity
QVQLVESGGVLVQAGGSLRLSCAASGLTFQPYVMGWYRHAPGKERELVAAISVRTTRTYYADSVKGRFTISRDNAKNTVYLQMNSLKPEDTAVYYCATRGDYWSPYEDDDYWGQGTQLTVSS	low polyreactivity
QVQLVESGGVLVQAGGSLRLSCAASGNTFKHYALGGYRQAPGKEREKVAAISRSGASTNYADSVKGRFTISRDNAKNTVYLQMNSLKPEDTAVYYCAAEYSARKAYLYDYWGQGTQVTVSS	high polyreactivity
QVQLVESGGVLVQAGGSLRLSCAASGNTFWLNAMGWYRQSPGKERELVDAITYTDGSTYADSVKGRFTISRDNAKNTVYLQMNSLKPEDTAVYYCAVANPSPYEWIAYYYWGQGTQVTVSS	low polyreactivity
QVQLVESGGVLVQAGGSLRLSCAASGRIFGRYAMGWYRPAPGKERELVAAISWSGDSTYYADSVKGRFTISRDNSTNTVYLHMNSLKPEDTAVYYCATGGRGGRRYEYWGQGTQVTVSS	low polyreactivity
QVQLVESGGVLVQAGGSLRLSCAASGRIFIGYAMGGNRQAPGKERELVAAISSSGGRTYYADSVKGRFTISRDNAKYTVYLQMNSLKPEDSAVYYCAKSFTRNTDYEYWGQGTQVTVSS	high polyreactivity

Sequence	polyreactivity (PSR sort gate)
QVQLVESGGVLVQAGGSLRLSCAASGRIFPYYAMGWYRQAPGKEREMVAAINSGGSTYYADSVKGRFTISRDNAKNTVYLQMNSLKPEDTAVYYCNADVLFEDGFFWDDYWGQGTQVTVSS	low polyreactivity
QVQLVESGGVLVQAGGSLRLSCAASGRIFTGNAMGWYRQAPGKETELVAAISRRGTRTYYADSVKGRFTISRDNAKNTVYLQMNSLKPEDTAVYYCATVLYKAYNDYGYWGQGTQVTVSS	high polyreactivity
QVQLVESGGVLVQAGGSLRLSCAASGRTFAYNTMGWYRQAPGKEREVVAAITWSGGGTYYADSVKGRFTISRDNAKKTVYLQLNSLKPEDTAVYYCAVEYATPRARFRYYYWGQGTKVTVSS	high polyreactivity
QVQLVESGGVLVQAGGSLRLSCAASGRTFSVYTMGWYRQAPGKERELVASINWSGGRTYYADSVKGRFTISRDKAKNTVYLQMNSLKPEDTAVYYCAATGWRTLYDYWGQGTQVTVSS	high polyreactivity
QVQLVESGGVLVQAGGSLRLSCAASGRTSFYYGVGWSRQAPGKERELVAGINYGGGSTYYADSVKGRFSISRDTAKNTVYLQMNSLKPEDTAVYYCAAYRRTLGDYWGQGTQVTVSS	low polyreactivity
QVQLVESGGVLVQAGGSLRLSCAASGSIFAGNAMGWYRQEPGKERELVAAISRSGTRTYYADSVKGRFTISRDNAMNTVYLQMNSLKPEDTAVYYFAAYLPYRQGRYGYEYWGQGTQVTVSS	high polyreactivity
QVQLVESGGVLVQAGGSLRLSCAASGSIFGIYTMGWYIHATGKERELVAAISWSGGSTYYADSVKGRFTISRDNAKNTVFLQMNSLKPEDTAVYYCAAVPWASDGYDSWGQGTQVTVSS	low polyreactivity
QVQLVESGGVLVQAGGSLRLSCAASGSIFNINAMGWYRQAPGKERELVAAMTSGDGTDYADSVKGRFTISRDNAKNTVYLQMNSLKPEDTAVYYCAAEYYWLVPERFDYWGQGTQVTVSS	low polyreactivity
QVQLVESGGVLVQAGGSLRLSCAASGSIYTWYAMGWYRQAPGKERELVAAITRGGSTYADSVKGRFTISRENAKNTVYLQMNSLKPEDTAVYYCNAVYGVYDFNYWGQGTQVTVSS	low polyreactivity
QVQLVESGGVLVQAGGSLRLSCAASGSTFYFNTMGWYRQAPGKERELVAAITATGASTYYADSVKGRFTISRDIAKNTVYLQMNSLKPEDTAVYYCNVRLRIRSGYWGQGTQVTVSS	high polyreactivity
QVQLVESGGVLVQAGGSLRLTCAASGFIFKIYAMGWYRQAPGKERELVARITRSGGSTYYADSVKGRFTNSRDNAKNTVYLQMNSLKPEDTAVYYCNAELFRYVRYEYWGQGTQVTVSS	high polyreactivity
QVQLVESGGVLVQAVGSLRLSCAASGRIFKNYAMGWYIQAPGKESELVAAISWSGGRTYYADSVKGRFTISRDNAKNTVYLQMNSLKPEDTAVYYCAVDFYYYGSRYYYWGQGTQVTVSS	high polyreactivity
QVQLVESGGVLVQAVGSLRLSCAASGSISSYYAMGWYIQAPGKERELVAAITSGGRTYYADSVKGRFTISRDNAKNTVYLQMNSLKPEATAVYYCAADPDTWSPHYESLGYYWGQGTQVTVSS	high polyreactivity
QVQLVESGGVLVQEGGSLSLSCTASRSIFLKYAMGWYRQAPGKERELVAAISSRDASTYYADSVKGRFSISRDNAKKSVYLQMNSLKPEDTAVYYCNVAQNYWAGLYDYWGQGTQVTVSS	high polyreactivity
QVQLVESGLGIVQAGGSLRVSCAASGSTISNYAMGWYRHAPGKERELVAAITSGGTTNYADSVKGRFTISRDNAKNTVYFQMNSLIPEDTAVYYCAKRYSYHVPTHLWVEYYYWGQGTQVTVSS	low polyreactivity
QVQLVESGLGLVQAGASLRVSCAASGSTFIFNTMGWSRQAPGKERELVAAIRLSGGSTYYADSVKGRFTITRDNAKNTVYLQMNSLNPEDTAVYYCARRLATRGHTYDYWGQGTQVTVSS	low polyreactivity
QVQLVESGLGLVQAGGSLRLSCAASGFTFTGYAMGWYRQAPGKERELVAAITRGGGSTYYADSVKGRFTISRDNAKNTVYLQMNSLKPEDTAVYYCAAQRSRLIRISSPYYGHEYWVQGTQVTVSS	low polyreactivity
QVQLVESGLGLVQAGGSLRLSCAASGRTFYYNAMGWYRQAPGKERELVAAISWSGGNTYYADSVKARFTISRDNAKNTVYLQMNSLKPEDTAVYYCAAVYRYYPGYDYWGHGTQVTVSS	high polyreactivity
QVQLVESGPGLFQAGGSLRLSCAASGNIFGYNVMAWYRQAPGKERELVAAITWSAGTTNYADSLKGRFTISRDNAKNTVYLQRNSLKPEDTAVYYFAVTWWYQDYDLTCYLYDYWGQGTEVTVSS	low polyreactivity
QVQLVESGPGLVQAGGSLRLSCAASGSTFAPYALGWYRQAPGIEMELVAAIRSSGGSTYYADSVKGGFTISRDNAKNTVYLQMNSLKPEDTAVYYCADDYYTSADYVDYYYWGQGTQVTVSS	low polyreactivity
